From patent US20060252916A1, “Modified glucagon-like peptide-1 analogs” (ELI LILLY AND COMPANY, priority 2002, published 2006)
No end group written: not given here.

Target: T1, human GLP-1 receptor (Homo sapiens, UniProt P43220)
T1 construct: expressed in transfected cells; host or cells: HEK-293 Aurora CRE-BLAM cells
Assay: In vitro potency, CRE-BLAM fluorescence assay
Type: cell-based
Settings: HEK-293 Aurora CRE-BLAM cells expressing the human GLP-1 receptor; 5 hours incubation; control Val^8-GLP-1(7-37)OH
Experimental: “In vitro potency” as used herein is the measure of the ability of a peptide to activate the GLP-1 receptor in a cell-based assay. In vitro potency is expressed as the “EC50” which is the effective concentration of compound that results in 50% activity in a single dose-response experiment. For the purposes of the present invention, in vitro potency is determined using a fluorescence assay that employs HEK-293 Aurora CRE-BLAM cells that stably express the human GLP-1 receptor. These HEK-293 cells have stably integrated a DNA vector having a cAMP response element (CRE) driving expression of the β-lactamase (BLAM) gene. The interaction of a GLP-1 agonist with the receptor initiates a signal that results in activation of the cAMP response element and subsequent expression of β-lactamase. The β-lactamase CCF2/AM substrate that emits fluorescence when it is cleaved by β-lactamase (Aurora Biosciences Corp.) can then be added to cells that have been exposed to a specific amount of GLP-1 agonist to provide a measure of GLP-1 agonist potency. […]
HEK-293 Aurora CRE-BLAM cells expressing the human GLP-1 receptor are seeded at 20,000 to 40,000 cells/well/100 μl into a 96 well black clear bottom plate. […] Generally, fourteen dilutions containing from […] to 30 nanomolar GLP-1 compound were used to generate a dose response curve from which EC50 values could be determined. […]

T1 sequence (P43220 24-463): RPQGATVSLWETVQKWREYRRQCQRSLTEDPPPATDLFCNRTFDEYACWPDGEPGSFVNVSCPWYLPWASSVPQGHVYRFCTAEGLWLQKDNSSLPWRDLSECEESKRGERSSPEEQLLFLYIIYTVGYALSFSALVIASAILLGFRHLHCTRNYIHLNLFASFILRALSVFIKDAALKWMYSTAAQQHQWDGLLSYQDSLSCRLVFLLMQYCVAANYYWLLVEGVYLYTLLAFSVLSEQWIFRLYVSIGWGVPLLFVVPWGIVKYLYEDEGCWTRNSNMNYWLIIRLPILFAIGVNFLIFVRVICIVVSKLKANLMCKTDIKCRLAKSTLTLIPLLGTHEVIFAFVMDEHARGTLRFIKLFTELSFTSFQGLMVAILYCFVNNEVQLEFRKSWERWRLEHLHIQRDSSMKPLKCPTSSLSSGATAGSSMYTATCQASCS

## GLP-1 compound-HSA conjugate of Example 3: Human serum albumin conjugate of the lysine-modified GLP-1 compound SEQ ID NO:22 of Example 3 (HVEGTFTSDVSSYLEEQAAKEFIAWLIKGRGK(3‑(2-pyridyldithio)propanamide)-NH2; also: conjugated to human serum albumin)
  EC50 values compared with Val^8-GLP-1(7-37)OH: about the same as the activity of Val^8-GLP-1(7-37)OH
